US20170174769A1

How the values were obtained:
[1] = biological target: extracellular domain of human FGFR1c expressed with C-terminal V5 and hexahistidine tags (human) (UniProt P11362); experiment: SPR, mAb captured, 37 C
[2] = biological target: extracellular domain of human KLB expressed with C-terminal HA and hexahistidine tags (human) (UniProt Q86Z14); experiment: SPR, mAb captured, 37 C
[3] = biological target: full-length human KLB on HEK293/hKLB/SRE-luc cells (human) (UniProt Q86Z14); experiment: FACS on stable HEK293 cells
[4] = biological target: human KLB and human FGFR1c co-expressed on HEK293/hKLB/hFGFR1c/SRE-luc cells (human) (UniProt Q86Z14); experiment: FACS on stable HEK293 cells
[5] = biological target: full-length human FGFR1c on HEK293/hFGFR1c/SRE-luc cells (human) (UniProt P11362); experiment: FACS on stable HEK293 cells
[6] = biological target: extracellular domain of human FGFR1c expressed with C-terminal V5 and hexahistidine tags (human) (UniProt P11362); experiment: SPR, mAb captured, 25 C
[7] = biological target: extracellular domain of human KLB expressed with C-terminal HA and hexahistidine tags (human) (UniProt Q86Z14); experiment: SPR, mAb captured, 25 C
[8] = biological target: mouse KLB and mouse FGFR1c co-expressed on HEK293/mKLB/mFGFR1c/SRE-Luc cells (mouse); experiment: FACS on stable HEK293 cells, 33 nM
[9] = biological target: mouse KLB and mouse FGFR1c co-expressed on HEK293/mKLB/mFGFR1c/SRE-Luc cells (mouse); experiment: FACS on stable HEK293 cells, 965 nM

extracellular domain of human FGFR1c expressed with C-terminal V5 and hexahistidine tags (human), sequence (P11362 other isoform, or with tags, fused parts or gaps limits assumed): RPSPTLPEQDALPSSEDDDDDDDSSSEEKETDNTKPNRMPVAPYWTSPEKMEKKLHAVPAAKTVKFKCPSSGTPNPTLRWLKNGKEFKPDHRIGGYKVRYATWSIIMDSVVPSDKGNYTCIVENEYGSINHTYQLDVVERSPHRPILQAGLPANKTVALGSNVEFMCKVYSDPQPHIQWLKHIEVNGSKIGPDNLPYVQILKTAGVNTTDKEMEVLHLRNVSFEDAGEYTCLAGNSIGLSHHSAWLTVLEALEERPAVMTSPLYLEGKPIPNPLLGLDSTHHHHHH
extracellular domain of human KLB expressed with C-terminal HA and hexahistidine tags (human), sequence (Q86Z14 1-996 limits assumed): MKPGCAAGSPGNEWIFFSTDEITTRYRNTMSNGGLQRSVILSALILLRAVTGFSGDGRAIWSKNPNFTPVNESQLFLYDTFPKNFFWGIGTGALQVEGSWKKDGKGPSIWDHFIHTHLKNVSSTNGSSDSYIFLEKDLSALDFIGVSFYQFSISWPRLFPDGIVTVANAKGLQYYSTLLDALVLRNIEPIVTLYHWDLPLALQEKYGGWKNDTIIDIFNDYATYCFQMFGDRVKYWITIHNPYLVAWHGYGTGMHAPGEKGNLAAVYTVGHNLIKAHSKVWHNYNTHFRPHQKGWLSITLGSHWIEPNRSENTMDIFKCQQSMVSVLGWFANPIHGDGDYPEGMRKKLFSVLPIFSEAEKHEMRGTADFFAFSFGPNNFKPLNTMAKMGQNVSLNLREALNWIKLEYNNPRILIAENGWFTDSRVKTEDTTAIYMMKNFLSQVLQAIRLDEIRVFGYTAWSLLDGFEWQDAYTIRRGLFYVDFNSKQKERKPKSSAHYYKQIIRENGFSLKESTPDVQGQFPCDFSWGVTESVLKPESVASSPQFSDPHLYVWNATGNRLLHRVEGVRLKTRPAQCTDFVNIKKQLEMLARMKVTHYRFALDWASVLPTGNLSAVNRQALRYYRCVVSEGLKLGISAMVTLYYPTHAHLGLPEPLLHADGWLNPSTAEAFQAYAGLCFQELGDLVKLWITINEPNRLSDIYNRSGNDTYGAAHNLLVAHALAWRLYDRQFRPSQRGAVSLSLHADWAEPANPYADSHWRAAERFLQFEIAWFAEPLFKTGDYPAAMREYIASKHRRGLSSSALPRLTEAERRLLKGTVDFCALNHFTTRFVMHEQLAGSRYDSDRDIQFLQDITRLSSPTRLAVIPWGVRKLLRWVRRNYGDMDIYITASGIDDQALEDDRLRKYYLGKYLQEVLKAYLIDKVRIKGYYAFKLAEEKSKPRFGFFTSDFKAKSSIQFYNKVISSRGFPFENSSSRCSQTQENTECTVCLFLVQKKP
human KLB and human FGFR1c co-expressed on HEK293/hKLB/hFGFR1c/SRE-luc cells (human), sequence (Q86Z14 whole entry, chain 1 of 2): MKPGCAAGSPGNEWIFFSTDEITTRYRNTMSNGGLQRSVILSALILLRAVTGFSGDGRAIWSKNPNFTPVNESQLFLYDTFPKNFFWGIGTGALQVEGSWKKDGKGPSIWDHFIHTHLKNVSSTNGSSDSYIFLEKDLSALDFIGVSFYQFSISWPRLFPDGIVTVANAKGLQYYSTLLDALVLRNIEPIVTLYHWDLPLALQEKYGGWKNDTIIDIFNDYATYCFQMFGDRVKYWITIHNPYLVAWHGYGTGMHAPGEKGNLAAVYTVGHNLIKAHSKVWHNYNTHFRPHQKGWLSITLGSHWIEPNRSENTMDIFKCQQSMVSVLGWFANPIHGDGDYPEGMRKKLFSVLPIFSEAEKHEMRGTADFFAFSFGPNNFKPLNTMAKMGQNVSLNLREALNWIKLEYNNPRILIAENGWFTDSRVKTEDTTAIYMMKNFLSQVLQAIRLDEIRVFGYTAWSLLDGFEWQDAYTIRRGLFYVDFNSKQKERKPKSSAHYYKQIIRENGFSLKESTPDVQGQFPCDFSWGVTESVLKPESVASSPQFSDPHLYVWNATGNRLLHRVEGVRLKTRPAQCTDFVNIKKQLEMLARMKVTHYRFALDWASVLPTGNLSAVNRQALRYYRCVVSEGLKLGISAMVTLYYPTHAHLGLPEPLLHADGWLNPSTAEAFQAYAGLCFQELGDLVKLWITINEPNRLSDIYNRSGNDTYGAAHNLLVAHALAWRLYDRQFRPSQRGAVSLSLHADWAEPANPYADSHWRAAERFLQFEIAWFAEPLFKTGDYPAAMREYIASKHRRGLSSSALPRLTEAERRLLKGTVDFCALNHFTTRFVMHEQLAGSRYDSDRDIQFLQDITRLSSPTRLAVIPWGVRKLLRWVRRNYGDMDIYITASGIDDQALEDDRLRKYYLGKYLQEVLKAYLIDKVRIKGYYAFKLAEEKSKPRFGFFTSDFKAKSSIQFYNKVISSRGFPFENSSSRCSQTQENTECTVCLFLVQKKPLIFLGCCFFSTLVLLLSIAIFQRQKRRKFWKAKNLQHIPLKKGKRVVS
human KLB and human FGFR1c co-expressed on HEK293/hKLB/hFGFR1c/SRE-luc cells (human), sequence (chain, as listed by the source limits assumed, chain 2 of 2): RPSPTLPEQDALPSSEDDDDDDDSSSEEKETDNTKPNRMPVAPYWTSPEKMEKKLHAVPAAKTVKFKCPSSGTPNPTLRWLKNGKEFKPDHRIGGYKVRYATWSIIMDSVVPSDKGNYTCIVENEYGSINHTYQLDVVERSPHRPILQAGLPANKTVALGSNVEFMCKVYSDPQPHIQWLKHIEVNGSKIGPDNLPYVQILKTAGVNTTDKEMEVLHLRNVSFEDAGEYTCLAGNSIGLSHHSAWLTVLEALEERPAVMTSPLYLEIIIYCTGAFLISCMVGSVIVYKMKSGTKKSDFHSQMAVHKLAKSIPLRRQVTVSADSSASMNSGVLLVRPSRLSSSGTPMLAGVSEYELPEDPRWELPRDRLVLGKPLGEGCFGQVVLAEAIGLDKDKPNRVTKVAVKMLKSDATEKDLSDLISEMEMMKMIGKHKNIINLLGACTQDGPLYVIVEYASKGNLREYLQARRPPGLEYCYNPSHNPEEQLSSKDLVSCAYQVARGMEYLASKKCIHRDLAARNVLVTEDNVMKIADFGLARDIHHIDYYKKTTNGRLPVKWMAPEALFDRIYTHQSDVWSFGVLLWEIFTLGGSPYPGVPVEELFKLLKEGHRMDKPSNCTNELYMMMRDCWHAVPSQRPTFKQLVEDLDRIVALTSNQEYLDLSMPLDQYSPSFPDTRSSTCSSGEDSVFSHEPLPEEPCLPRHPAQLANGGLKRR
full-length human KLB on HEK293/hKLB/SRE-luc cells (human), sequence (Q86Z14 whole entry): as the sequence (Q86Z14 whole entry, chain 1 of 2) above
full-length human FGFR1c on HEK293/hFGFR1c/SRE-luc cells (human), sequence (P11362 other isoform, or with tags, fused parts or gaps limits assumed): as the sequence (chain, as listed by the source limits assumed, chain 2 of 2) above

Binder | 180 nM hFGFR1c-V5-6His Bind (RU) [1] [RU] | Kd [1] [nM] | koff [1] [s⁻¹] | kon [1] [M⁻¹ s⁻¹] | t1/2 [1] [s] | 20 nM hKLB-HA-6His Bind (RU) [2] [RU] | binding ratio to unstained cells [3] [fold] | binding ratio to unstained cells [4] [fold] | binding ratio to unstained cells [5] [fold] | 180 nM hFGFR1c-V5-6His Bind (RU) [6] [RU] | Kd [6] [nM] | koff [6] [s⁻¹] | kon [6] [M⁻¹ s⁻¹] | t1/2 [6] [s] | 20 nM hKLB-HA-6His Bind (RU) [7] [RU] | MFI Ratio to unstained cells [8] [fold] | MFI Ratio to unstained cells [9] [fold]
Comparator 3 (antibody, from another filing, V domains shown) VH: EVQLVQSGAEVKKPGASVKVSCKVSGYTFTDYYMHWVQQAPGKGLEWMGLVDPEDGETIYAEKFQGRVTITADTSTDTAYMELSSLRSEDTAVYYCARDDYMDVWGKGTLVTVSS VL: ETTLTQSPDTLSLSPGEGATLSCRASQSVSGSALAWYQQKPGQAPRLLIYDASSRATGVPDRFSGSGSGADFSLTISRLEPEDFAVYSCQQYGSSPLTFGPGTKVDVKR | 88.8 | 8.76 | 0.0208 | 2.37e+06 | 36 | -1 | 2 | 33 | 27 | 16.4 | 4.12 | 0.0129 | 3.13e+06 | 54 | -1.1 |  | 
H1H8900P (antibody, V domains shown) VH: QVQLVESGGGVVQPGRSLRLSCVASGFTFSSYGMHWVRQAPGKGLEWVAVISFDGSNKYYADSVKGRFTISRDNSKNTLYLQMNSLRPADTAVYYCAKDRSNYYYFGMDVWGQGTTVTVSS VL: DIVMTQTPLSLPVTPGEPASISCRSSQSLLDSDDGNTYLDWYLQKPGQSPQLLIYTLSYRASGVPDRFSGSGSGTDFTLKISRVEAEDVGVYYCMQRIEFPLTFGGGTKVEIK |  |  |  |  |  |  |  |  |  |  |  |  |  |  |  | 1 | 2
